Measurements taken from US20260242735A1 (UNIVERSIT T BASEL, published 2026).

Legend:
Test in all cases: alanine scan, flow cytometry, HEK293-T;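 further: antibody binding to each alanine-substituted CD33 mutant expressed transiently in HEK293-T, read as fluorescence minus background, mean of duplicates, relative to wild-type CD33 set as 100%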
human CD33 D112A = human CD33 D112A (human, UniProt P20138 18-364)
human CD33 F90A = human CD33 F90A (human, UniProt P20138 18-364)
human CD33 E84A = human CD33 E84A (human, UniProt P20138 18-364)
human CD33 G94A = human CD33 G94A (human, UniProt P20138 18-364)
human CD33 A108S = human CD33 A108S (human, UniProt P20138 18-364)
human CD33 S54A = human CD33 S54A (human, UniProt P20138 18-364)
human CD33 D107A = human CD33 D107A (human, UniProt P20138 18-364)
human CD33 Y49A = human CD33 Y49A (human, UniProt P20138 18-364)
human CD33 Q80A = human CD33 Q80A (human, UniProt P20138 18-364)
human CD33 R98A = human CD33 R98A (human, UniProt P20138 18-364)
human CD33 R111A = human CD33 R111A (human, UniProt P20138 18-364)
human CD33 E81A = human CD33 E81A (human, UniProt P20138 18-364)
human CD33 P46A = human CD33 P46A (human, UniProt P20138 18-364)
human CD33 N100A = human CD33 N100A (human, UniProt P20138 18-364)
human CD33 N76A = human CD33 N76A (human, UniProt P20138 18-364)
human CD33 Y59A = human CD33 Y59A (human, UniProt P20138 18-364)
human CD33 S115A = human CD33 S115A (human, UniProt P20138 18-364)
human CD33 P72A = human CD33 P72A (human, UniProt P20138 18-364)
human CD33 N53A = human CD33 N53A (human, UniProt P20138 18-364)
human CD33 P145A = biological target: T1, human CD33 P145A (human, UniProt P20138 18-364)
T1 construct: alanine scan clone, transfected HEK293-T

human CD33 P184A = biological target: T2, human CD33 P184A (human, UniProt P20138 18-364)
T2 construct: alanine scan clone, transfected HEK293-T

human CD33 I149A = biological target: T3, human CD33 I149A (human, UniProt P20138 18-364)
T3 construct: alanine scan clone, transfected HEK293-T

human CD33 T162A = biological target: T4, human CD33 T162A (human, UniProt P20138 18-364)
T4 construct: alanine scan clone, transfected HEK293-T

human CD33 T173A = biological target: T5, human CD33 T173A (human, UniProt P20138 18-364)
T5 construct: alanine scan clone, transfected HEK293-T

human CD33 E170A = biological target: T6, human CD33 E170A (human, UniProt P20138 18-364)
T6 construct: alanine scan clone, transfected HEK293-T

human CD33 N160A = biological target: T7, human CD33 N160A (human, UniProt P20138 18-364)
T7 construct: alanine scan clone, transfected HEK293-T

human CD33 A168S = biological target: T8, human CD33 A168S (human, UniProt P20138 18-364)
T8 construct: alanine scan clone, transfected HEK293-T

human CD33 T125A = biological target: T9, human CD33 T125A (human, UniProt P20138 18-364)
T9 construct: alanine scan clone, transfected HEK293-T

human CD33 S186A = biological target: T10, human CD33 S186A (human, UniProt P20138 18-364)
T10 construct: alanine scan clone, transfected HEK293-T

human CD33 S128A = biological target: T11, human CD33 S128A (human, UniProt P20138 18-364)
T11 construct: alanine scan clone, transfected HEK293-T

human CD33 G188A = biological target: T12, human CD33 G188A (human, UniProt P20138 18-364)
T12 construct: alanine scan clone, transfected HEK293-T

human CD33 R122A = biological target: T13, human CD33 R122A (human, UniProt P20138 18-364)
T13 construct: alanine scan clone, transfected HEK293-T

human CD33 C163A = biological target: T14, human CD33 C163A (human, UniProt P20138 18-364)
T14 construct: alanine scan clone, transfected HEK293-T

human CD33 S164A = biological target: T15, human CD33 S164A (human, UniProt P20138 18-364)
T15 construct: alanine scan clone, transfected HEK293-T

human CD33 K159A = biological target: T16, human CD33 K159A (human, UniProt P20138 18-364)
T16 construct: alanine scan clone, transfected HEK293-T

human CD33 L187A = biological target: T17, human CD33 L187A (human, UniProt P20138 18-364)
T17 construct: alanine scan clone, transfected HEK293-T
T17 sequence (P20138 18-364 L187A limits assumed): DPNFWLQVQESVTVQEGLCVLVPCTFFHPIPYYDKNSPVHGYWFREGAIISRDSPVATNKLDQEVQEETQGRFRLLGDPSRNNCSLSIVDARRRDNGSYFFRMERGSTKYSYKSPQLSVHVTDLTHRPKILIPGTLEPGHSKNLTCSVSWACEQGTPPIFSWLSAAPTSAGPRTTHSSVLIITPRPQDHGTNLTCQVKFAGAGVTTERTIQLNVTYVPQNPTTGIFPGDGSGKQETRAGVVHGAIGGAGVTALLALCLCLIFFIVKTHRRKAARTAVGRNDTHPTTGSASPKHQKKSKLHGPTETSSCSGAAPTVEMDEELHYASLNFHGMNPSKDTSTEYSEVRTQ

Chain of human CD33 G94A (P20138 18-364 G94A limits assumed): as the sequence (P20138 18-364 L187A limits assumed) above, with G77A, A170L counted along it
T9 sequence (P20138 18-364 T125A limits assumed): as the sequence (P20138 18-364 L187A limits assumed) above, with T108A, A170L counted along it
T15 sequence (P20138 18-364 S164A limits assumed): as the sequence (P20138 18-364 L187A limits assumed) above, with S147A, A170L counted along it
T8 sequence (P20138 18-364 A168S limits assumed): as the sequence (P20138 18-364 L187A limits assumed) above, with A151S, A170L counted along it
T4 sequence (P20138 18-364 T162A limits assumed): as the sequence (P20138 18-364 L187A limits assumed) above, with T145A, A170L counted along it
Chain of human CD33 D107A (P20138 18-364 D107A limits assumed): as the sequence (P20138 18-364 L187A limits assumed) above, with D90A, A170L counted along it
Chain of human CD33 F90A (P20138 18-364 F90A limits assumed): as the sequence (P20138 18-364 L187A limits assumed) above, with F73A, A170L counted along it
T6 sequence (P20138 18-364 E170A limits assumed): as the sequence (P20138 18-364 L187A limits assumed) above, with E153A, A170L counted along it
Chain of human CD33 E81A (P20138 18-364 E81A limits assumed): as the sequence (P20138 18-364 L187A limits assumed) above, with E64A, A170L counted along it
Chain of human CD33 Q80A (P20138 18-364 Q80A limits assumed): as the sequence (P20138 18-364 L187A limits assumed) above, with Q63A, A170L counted along it
Chain of human CD33 P46A (P20138 18-364 P46A limits assumed): as the sequence (P20138 18-364 L187A limits assumed) above, with P29A, A170L counted along it
T10 sequence (P20138 18-364 S186A limits assumed): as the sequence (P20138 18-364 L187A limits assumed) above, with S169A, A170L counted along it
Chain of human CD33 A108S (P20138 18-364 A108S limits assumed): as the sequence (P20138 18-364 L187A limits assumed) above, with A91S, A170L counted along it
T7 sequence (P20138 18-364 N160A limits assumed): as the sequence (P20138 18-364 L187A limits assumed) above, with N143A, A170L counted along it
Chain of human CD33 N76A (P20138 18-364 N76A limits assumed): as the sequence (P20138 18-364 L187A limits assumed) above, with N59A, A170L counted along it
T3 sequence (P20138 18-364 I149A limits assumed): as the sequence (P20138 18-364 L187A limits assumed) above, with I132A, A170L counted along it
Chain of human CD33 Y49A (P20138 18-364 Y49A limits assumed): as the sequence (P20138 18-364 L187A limits assumed) above, with Y32A, A170L counted along it
T2 sequence (P20138 18-364 P184A limits assumed): as the sequence (P20138 18-364 L187A limits assumed) above, with P167A, A170L counted along it
Chain of human CD33 N53A (P20138 18-364 N53A limits assumed): as the sequence (P20138 18-364 L187A limits assumed) above, with N36A, A170L counted along it
Chain of human CD33 N100A (P20138 18-364 N100A limits assumed): as the sequence (P20138 18-364 L187A limits assumed) above, with N83A, A170L counted along it
Chain of human CD33 S115A (P20138 18-364 S115A limits assumed): as the sequence (P20138 18-364 L187A limits assumed) above, with S98A, A170L counted along it
Chain of human CD33 D112A (P20138 18-364 D112A limits assumed): as the sequence (P20138 18-364 L187A limits assumed) above, with D95A, A170L counted along it
T14 sequence (P20138 18-364 C163A limits assumed): as the sequence (P20138 18-364 L187A limits assumed) above, with C146A, A170L counted along it
Chain of human CD33 R111A (P20138 18-364 R111A limits assumed): as the sequence (P20138 18-364 L187A limits assumed) above, with R94A, A170L counted along it
T1 sequence (P20138 18-364 P145A limits assumed): as the sequence (P20138 18-364 L187A limits assumed) above, with P128A, A170L counted along it
Chain of human CD33 Y59A (P20138 18-364 Y59A limits assumed): as the sequence (P20138 18-364 L187A limits assumed) above, with Y42A, A170L counted along it
T11 sequence (P20138 18-364 S128A limits assumed): as the sequence (P20138 18-364 L187A limits assumed) above, with S111A, A170L counted along it
T5 sequence (P20138 18-364 T173A limits assumed): as the sequence (P20138 18-364 L187A limits assumed) above, with T156A, A170L counted along it
T12 sequence (P20138 18-364 G188A limits assumed): as the sequence (P20138 18-364 L187A limits assumed) above, with A170L, G171A counted along it
T13 sequence (P20138 18-364 R122A limits assumed): as the sequence (P20138 18-364 L187A limits assumed) above, with R105A, A170L counted along it
Chain of human CD33 S54A (P20138 18-364 S54A limits assumed): as the sequence (P20138 18-364 L187A limits assumed) above, with S37A, A170L counted along it
T16 sequence (P20138 18-364 K159A limits assumed): as the sequence (P20138 18-364 L187A limits assumed) above, with K142A, A170L counted along it
Chain of human CD33 P72A (P20138 18-364 P72A limits assumed): as the sequence (P20138 18-364 L187A limits assumed) above, with P55A, A170L counted along it
Chain of human CD33 E84A (P20138 18-364 E84A limits assumed): as the sequence (P20138 18-364 L187A limits assumed) above, with E67A, A170L counted along it
Chain of human CD33 R98A (P20138 18-364 R98A limits assumed): as the sequence (P20138 18-364 L187A limits assumed) above, with R81A, A170L counted along it

| Binder | Mean % WT Binding (human CD33 D112A) [% WT binding] | Mean % WT Binding (human CD33 F90A) [% WT binding] | Mean % WT Binding (human CD33 E84A) [% WT binding] | Mean % WT Binding (human CD33 G94A) [% WT binding] | Mean % WT Binding (human CD33 A108S) [% WT binding] | Mean % WT Binding (human CD33 S54A) [% WT binding] | Mean % WT Binding (human CD33 D107A) [% WT binding] | Mean % WT Binding (human CD33 Y49A) [% WT binding] | Mean % WT Binding (human CD33 Q80A) [% WT binding] | Mean % WT Binding (human CD33 R98A) [% WT binding] | Mean % WT Binding (human CD33 R111A) [% WT binding] | Mean % WT Binding (human CD33 E81A) [% WT binding] | Mean % WT Binding (human CD33 P46A) [% WT binding] | Mean % WT Binding (human CD33 N100A) [% WT binding] | Mean % WT Binding (human CD33 N76A) [% WT binding] | Mean % WT Binding (human CD33 Y59A) [% WT binding] | Mean % WT Binding (human CD33 S115A) [% WT binding] | Mean % WT Binding (human CD33 P72A) [% WT binding] | Mean % WT Binding (human CD33 N53A) [% WT binding] | Mean % WT Binding (human CD33 P145A) [% WT binding] | further results |
| --- | --- | --- | --- | --- | --- | --- | --- | --- | --- | --- | --- | --- | --- | --- | --- | --- | --- | --- | --- | --- | --- |
| Refmab #5 (antibody, V domains shown, Full-length format is human IgG1 Fc silent (PG-LALA); also made as Fab; The alanine scan used IgG or Fab) VH: QVQLVQSGAEVKKPGASVKVSCKASGYTFTNYDINWVRQAPGQGLEWIGWIYPGDGSTKYNEKFKAKATLTADTSTSTAYMELRSLRSDDTAVYYCASGYEDAMDYWGQGTTVTVSS VL: DIQMTQSPSSLSASVGDRVTINCKASQDINSYLSWFQQKPGKAPKTLIYRANRLVDGVPSRFSGSGSGQDYTLTISSLQPEDFATYYCLQYDEFPLTFGGGTKVEIK | 61.2 | 123 | 141 | 92.2 | 105 | 146 | 119 | 20.6 | 151 | 134 | 118 | 140 | 79.1 | 165 | 124 | 205 | 74.6 | 116 | 97.6 | – | – |
| Refmab #5 (antibody, V domains shown, The alanine scan used IgG or Fab) VH: QVQLVQSGAEVKKPGASVKVSCKASGYTFTNYDINWVRQAPGQGLEWIGWIYPGDGSTKYNEKFKAKATLTADTSTSTAYMELRSLRSDDTAVYYCASGYEDAMDYWGQGTTVTVSS VL: DIQMTQSPSSLSASVGDRVTINCKASQDINSYLSWFQQKPGKAPKTLIYRANRLVDGVPSRFSGSGSGQDYTLTISSLQPEDFATYYCLQYDEFPLTFGGGTKVEIK | – | – | – | – | – | – | – | – | – | – | – | – | – | – | – | – | – | – | – | 82.9 | Mean % WT Binding (human CD33 P184A): 107 % WT binding; Mean % WT Binding (human CD33 I149A): 112 % WT binding; Mean % WT Binding (human CD33 T162A): 92.4 % WT binding; Mean % WT Binding (human CD33 T173A): 101 % WT binding; Mean % WT Binding (human CD33 E170A): 110 % WT binding; Mean % WT Binding (human CD33 N160A): 110 % WT binding; Mean % WT Binding (human CD33 A168S): 103 % WT binding; Mean % WT Binding (human CD33 T125A): 56.7 % WT binding; Mean % WT Binding (human CD33 S186A): 112 % WT binding; Mean % WT Binding (human CD33 S128A): 283 % WT binding; Mean % WT Binding (human CD33 G188A): 114 % WT binding; Mean % WT Binding (human CD33 R122A): 85.7 % WT binding; Mean % WT Binding (human CD33 C163A): 62 % WT binding; Mean % WT Binding (human CD33 S164A): 110 % WT binding; Mean % WT Binding (human CD33 K159A): 148 % WT binding; Mean % WT Binding (human CD33 L187A): 144 % WT binding |
| Refmab #6 (antibody, V domains shown, Full-length format is human IgG1 Fc silent (PG-LALA); also made as Fab; The alanine scan used IgG or Fab) VH: QVQLQQPGAEVVKPGASVKMSCKASGYTFTSYYIHWIKQTPGQGLEWVGVIYPGNDDISYNQKFQGKATLTADKSSTTAYMQLSSLTSEDSAVYYCAREVRLRYFDVWGQGTTVTVSS VL: EIVLTQSPGSLAVSPGERVTMSCKSSQSVFFSSSQKNYLAWYQQIPGQSPRLLIYWASTRESGVPDRFTGSGSGTDFTLTISSVQPEDLAIYYCHQYLSSRTFGQGTKLEIK | 51.6 | 71.1 | 97.4 | 93.1 | 78.4 | 83.6 | 96.5 | 113 | 102 | 94.2 | 102 | 88.1 | 49.3 | 83.9 | 86.8 | 83.2 | 75.8 | 92.3 | 96.8 | – | – |
| Refmab #6 (antibody, V domains shown, The alanine scan used IgG or Fab) VH: QVQLQQPGAEVVKPGASVKMSCKASGYTFTSYYIHWIKQTPGQGLEWVGVIYPGNDDISYNQKFQGKATLTADKSSTTAYMQLSSLTSEDSAVYYCAREVRLRYFDVWGQGTTVTVSS VL: EIVLTQSPGSLAVSPGERVTMSCKSSQSVFFSSSQKNYLAWYQQIPGQSPRLLIYWASTRESGVPDRFTGSGSGTDFTLTISSVQPEDLAIYYCHQYLSSRTFGQGTKLEIK | – | – | – | – | – | – | – | – | – | – | – | – | – | – | – | – | – | – | – | 89.7 | Mean % WT Binding (human CD33 P184A): 92.2 % WT binding; Mean % WT Binding (human CD33 I149A): 100 % WT binding; Mean % WT Binding (human CD33 T162A): 87.2 % WT binding; Mean % WT Binding (human CD33 T173A): 98.9 % WT binding; Mean % WT Binding (human CD33 E170A): 89.5 % WT binding; Mean % WT Binding (human CD33 N160A): 106 % WT binding; Mean % WT Binding (human CD33 A168S): 100 % WT binding; Mean % WT Binding (human CD33 T125A): 112 % WT binding; Mean % WT Binding (human CD33 S186A): 110 % WT binding; Mean % WT Binding (human CD33 S128A): 127 % WT binding; Mean % WT Binding (human CD33 G188A): 100 % WT binding; Mean % WT Binding (human CD33 R122A): 106 % WT binding; Mean % WT Binding (human CD33 C163A): 73.9 % WT binding; Mean % WT Binding (human CD33 S164A): 100 % WT binding; Mean % WT Binding (human CD33 K159A): 123 % WT binding; Mean % WT Binding (human CD33 L187A): 119 % WT binding |
